Measurements published in patent publication US20220041738A1 (SAITAMA MEDICAL UNIVERSITY, published 2022).

Tests used:
Test in all cases: immunofluorescence on transfected, formalin-fixed C2C12 cells, IgG at 10 µg/mL, Alexa 594 anti-rat IgG
[1] = molecular target: T1, human ALK2-P197_F198delinsL on cells (human, UniProt Q04771 21-509)
T1 construct: also called delP197_F198insL
T1 sequence: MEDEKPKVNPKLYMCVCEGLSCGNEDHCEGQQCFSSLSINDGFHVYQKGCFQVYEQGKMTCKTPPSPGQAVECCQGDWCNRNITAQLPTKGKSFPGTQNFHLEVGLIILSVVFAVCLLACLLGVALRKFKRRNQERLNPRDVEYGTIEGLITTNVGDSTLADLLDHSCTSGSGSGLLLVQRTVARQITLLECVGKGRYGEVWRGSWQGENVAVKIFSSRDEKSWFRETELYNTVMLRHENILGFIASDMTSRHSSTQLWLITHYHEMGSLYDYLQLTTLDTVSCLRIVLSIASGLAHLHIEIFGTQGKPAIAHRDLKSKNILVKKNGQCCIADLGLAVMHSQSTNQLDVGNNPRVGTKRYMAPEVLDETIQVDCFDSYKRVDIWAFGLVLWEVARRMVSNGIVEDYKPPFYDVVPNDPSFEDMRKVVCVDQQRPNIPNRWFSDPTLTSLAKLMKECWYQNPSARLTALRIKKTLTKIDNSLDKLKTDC
Procedure, shortened: (§1)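 C2C12 mouse myoblasts transfected overnight with human ALK2 cDNA (wild-type or FOP variants incl. G325A, pcDEF3 vector). Cells formalin-fixed, goat-serum blocked, stained 1 h RT with purified IgG at 10 µg/mL, then Alexa 594 anti-rat IgG 1 h; DAPI nuclei, fluorescence microscopy read-out.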

[2] = molecular target: T2, human ALK2-G328E on cells (human, UniProt Q04771 21-509)
T2 sequence: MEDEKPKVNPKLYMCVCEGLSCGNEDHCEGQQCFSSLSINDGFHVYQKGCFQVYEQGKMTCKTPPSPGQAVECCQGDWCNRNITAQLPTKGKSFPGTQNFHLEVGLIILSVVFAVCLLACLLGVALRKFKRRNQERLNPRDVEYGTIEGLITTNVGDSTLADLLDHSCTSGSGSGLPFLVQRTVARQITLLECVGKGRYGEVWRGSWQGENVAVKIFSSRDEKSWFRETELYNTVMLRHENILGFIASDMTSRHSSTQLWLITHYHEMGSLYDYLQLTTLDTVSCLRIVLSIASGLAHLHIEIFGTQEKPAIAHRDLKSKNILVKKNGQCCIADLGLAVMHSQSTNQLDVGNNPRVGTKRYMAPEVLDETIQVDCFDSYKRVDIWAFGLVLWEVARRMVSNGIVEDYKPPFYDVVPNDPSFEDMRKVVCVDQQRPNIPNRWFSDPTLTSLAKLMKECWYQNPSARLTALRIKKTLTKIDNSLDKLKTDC
Procedure, shortened: as §1

[3] = molecular target: T3, human ALK2-G328W on cells (human, UniProt Q04771 21-509)
T3 sequence: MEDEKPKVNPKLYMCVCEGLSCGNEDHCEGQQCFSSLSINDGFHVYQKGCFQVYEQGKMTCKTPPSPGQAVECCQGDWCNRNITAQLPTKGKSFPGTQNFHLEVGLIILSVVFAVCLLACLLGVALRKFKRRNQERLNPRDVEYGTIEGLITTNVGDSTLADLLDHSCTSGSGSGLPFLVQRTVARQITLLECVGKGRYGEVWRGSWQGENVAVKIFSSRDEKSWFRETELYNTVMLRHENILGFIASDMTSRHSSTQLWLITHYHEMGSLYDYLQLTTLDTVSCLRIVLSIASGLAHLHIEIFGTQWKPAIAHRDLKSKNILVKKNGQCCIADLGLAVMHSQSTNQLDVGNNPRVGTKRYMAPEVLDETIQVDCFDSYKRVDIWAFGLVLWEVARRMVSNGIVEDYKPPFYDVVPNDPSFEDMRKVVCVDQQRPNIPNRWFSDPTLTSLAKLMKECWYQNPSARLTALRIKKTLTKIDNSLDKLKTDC
Procedure, shortened: as §1

Measured: binding result

B1: rat anti-ALK2 monoclonal antibody A2-27D (antibody, V domains shown)
VH: EVQLVESGGGLVQPGRSLKLSCLASGSTFSNYGMKWIRQAPGKGLEWVASISRSSTYIYYADTVKGRFTISRDNARNTLYLQMTSLRSEDTALYYCAAAISTPFYWYFDFWGPGTVVTVSS
VL: EIVLTQSPTTMAASPGEKVTLNCLASSSVSYMTWYQQKSGASPKLWIYGTSNLASGVPNRFSGSGSGTSYSLAISSMEAEDVATYYCLHLTSYPPYTFGAGTKLELKR
notes: Rat monoclonal IgG from a hybridoma; also called 27D11
binds: [1] | [2] | [3]

B2: rat anti-ALK2 monoclonal antibody A2-25C (antibody, V domains shown)
VH: EVQLVESGGGLVQPGGSLKLSCAASGFTFSYYAMSWVCQAPTKGLEWVASISRGGDNTYYRDTVKGRFTTSRDNAKNTLYLQMDSLRSEDTATYYCARLNYNNYFDYWGQGVMVTVSS
VL: DIQMTQSPASLSASLEEIVTITCQASQDIGNWLSWYQQKPGKSPQLLIYGATSLADGVPSRFSGSRSGTQYSLKISRLRVEDIGIYYCLQAYSAPFTFGSGTKLEIKR
notes: Rat monoclonal IgG from a hybridoma; also called 25C11
binds: [1] | [2] | [3]
